# Measured values taken from patent publication US20060172958A1, “Phospholipid scramblase 3” (priority 2003, published 2006).
# How the values were obtained:
# [1] = biological target: phospholipid scramblase 3 (PLS3), human, isoform not stated (human) (UniProt Q9NRY6); assay: co-immunoprecipitation with PLS3 antibody, estimated against a PKC-δ blot (not shown)
# [2] = biological target: phospholipid scramblase 3 alpha (PLS3α) (human) (UniProt Q9NRY6); assay: cell-based or functional assay
# Chain of phospholipid scramblase 3 alpha (PLS3α) (human) (Q9NRY6 other isoform, or with tags, fused parts or gaps limits assumed): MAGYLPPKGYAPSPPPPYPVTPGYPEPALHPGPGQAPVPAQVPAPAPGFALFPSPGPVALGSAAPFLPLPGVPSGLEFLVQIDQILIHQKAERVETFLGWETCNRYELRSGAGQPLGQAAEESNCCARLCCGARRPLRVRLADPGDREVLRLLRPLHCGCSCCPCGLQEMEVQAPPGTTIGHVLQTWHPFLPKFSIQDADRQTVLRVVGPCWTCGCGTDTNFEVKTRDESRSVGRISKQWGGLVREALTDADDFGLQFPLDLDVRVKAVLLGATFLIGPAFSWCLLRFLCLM
# Chain of phospholipid scramblase 3 (PLS3), human, isoform not stated (human) (Q9NRY6 whole entry, canonical isoform): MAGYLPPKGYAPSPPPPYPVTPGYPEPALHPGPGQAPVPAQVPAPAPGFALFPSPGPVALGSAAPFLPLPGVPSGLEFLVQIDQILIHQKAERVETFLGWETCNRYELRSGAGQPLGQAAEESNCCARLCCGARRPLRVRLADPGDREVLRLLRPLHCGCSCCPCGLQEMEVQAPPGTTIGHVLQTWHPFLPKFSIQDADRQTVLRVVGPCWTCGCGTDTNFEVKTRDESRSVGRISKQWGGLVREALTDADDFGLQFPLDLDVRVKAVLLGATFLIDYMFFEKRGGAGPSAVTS
percent of total cellular PKC-δ co-immunoprecipitated with PLS3 [1] [%],percentage of cardiolipin at the outer membrane (shoulder of the NAO curve) [2] [%],"proportion of sub-G1 cells, or the apoptotic population (propidium iodide) [2] [%]",Substance
5 to 10,–,–,"PKC-δ (cellular, HEK293 cells) (from UniProt Q05655 1-676) (enzyme)"
–,50,15.4,"Bcl-B (untagged, from pcDNA-Bcl-B or pBcl-B-IRES-EGFP) (from UniProt Q9HD36 1-204)"
